Protein production data for 5 sequences are collected here from a protein production outcome set (Wang et al. 2014).

The series in a line: label from the status in PepcDB records.
In the case of “MTQPLRQYREKRDFRATAEPAGAARRPRAAARASEGLSFVIQRHQARRLHYDFRLEIDGVLVSWAVPKGPSRDPSVKRLAVHVEDHPLEYGGFSGDIPKGQYGAGHVDIWDSGVWIPRGDPRQGLRRGKLHFALRGRRLAGDWVLVRMSGEQDQWLLRKEDDEAAVPGDDAERAPATPPPAPEHAPAATPRGRRAAMPHTLAPQLATLVDSPPHGPGWSYEVKYDGYRILAACSAGGVRLVSRGNEDWQARMAPLARALGALKLGRGWLDGEVVVLDERGVADFQLLQNALDGQAEGLVFVAFDLPFWNGEDLRALPLQARQERLEDLLREVPEDAPLMLTQRLPVADDTEGKAAWNEACRLSLEGLICKRLDAPYRSGRSQGWLKLKCRPRQEFVIGGYTEPAGARRHLGALLVGLRQGRQLRYAGRVGTGFGAATLRTLGQRLAALRQDAKPFSGDVPRGRGDAAIHWVSPELVAEVNYAGITRDGLLRQASFAGLRADKPASEVRGEVAARPPAAKAATPSRRAGDGRAEVAGVRISHPDRLAYREPDYTKLQLAEYYAAIGPHILPHLRQRRVALLRCPDGAGTTCFFQKHLSQSLPAGVRRDGGHLVIESLPGLIALVQYGAIEFHTWGADTRHPDTPDRITLDLDPGPGVAWPAIVEGAQMARLLMQEVGLEPFLKTTGGKGLHLVAPLRPTQPWDTVKDFARALARQLAVALPDRFTANMAKARRERRIFVDYLRNGNGATAVAAFSARARDGAPVSMPLSWDALDAGDDLRGARWNIANALEQARRKPDPWADYAASRRTLGSRMQARLPRD”, the protein production entry is reported as “failed”. As for “MSTPLTLIATITAAPGHAEALERELRALVAPSRAEAGCLQYDLHQDRHDSHLFYMIEQWRDDAALERHQNTEHFLRFSRGNEALLQNVKIDQLYRLA”, the protein production result is on record as “not failed”. Turning to “MLSVVSPNRSTARAARTPFWRRAAVGLCLLGVAMSGPLAAQDPAQVNTFIGSKDDGNTYPGASAPFGLIQVSPIGAHYAGWRYDDPSIRGFGHSFLSGAGCWEQGGQVSVLPVTGRIGPGGDFDTNDAKAFDQKRYAARYTHDGEVGQAGYYKVRLTDYGGIDAEASALTRAATERYTFAPGADTGHVLVNVAQANDRHVVIGSQLQIVGDRVVEGKLTTQSFCGGHEYTTWFRLEFDRPFTAHGVWGEEGGVPGARHGMGGELKPNGAWLSFPLGKDKNARAVTVVSAISHVDAQGARSNLRADGMQGGKLLSLEQMRQRAQNGWRNALASMQVEGASNDDRSVAYTALYHALLQPLTGSDADGRYRGYDDAIHRADGWTYYEYFSLWDTYRSQNQLLALLQPTRARDIGRSLLAIQQQGGWLPRWGYANFDTNIMTGDPVTPFLVDLWRFGALQGNEAEAYAALRQNAFGQPPINSRHAGRSGNANYLANGFVQYDRAFPSKGMDVDPHHGGSATLEYALADCALAQMAQALGHGEDAAQLRKRGGNWHRVWDADVRDAETGFAGFPRPRLEDGSWYAPSDDHYSPRSEHGFHEGTAWQYQWLVQQDIPGMLQAMHGSQQAGKRLDAFFAYDDLLKDPLTAARTHWVVGPYSYYNQYRYNPNNEPDLHAPWMYTLIGQPWKTATVVRAAQQLFTNAPNGVTGNDDLGTMSAWYLFSALGLYPAVPGSGQFLLHAPRFKRVTLNLGNGKRLRIDAPGADGRALQYVDNVRWNGKAQPQVFLDWAQLQQGGTLAFALTKQAPTQGWGTQADALPASFCATPQAQ”, the protein production entry is on record as “failed”.

Take “CLVDPHTVLPSPISGPTETIRSLRRCAAAGGYGQVALLPRGQSWRDQPERLIGLQNADPSSVHLPLWGGFSLNGKGDELAPHGDLLEHGAIGLADDDAVVPLPLLERGLLLGEMGSCPVLIAPRDPNLQGDGLAREGVETLRAGWAPDPLISELLPLQQLLALQQRHPDRQLRLMNISTAAAVDLLGQADPQLKASVCWWHLLVDGSSLSSTDPGCRVRPSLGGAADRLRLRSALQSGLIQAVAVHAVPLDEEDMLLPADQRPPGLSGHHLVMPALWSALVDQGDLSIESLWELLSFGPSAFLDQP”: the protein production result is recorded as “failed”. As for “MENRIELYDSKARYGVISRGLHWAMALAFAWIYSTTSAHYLLADSALDKFLWPTHKQVGLLLMALLLVRVLWSLLNRHRRPPSLNLAATLGHGLLYAGMFAIPFLGLLRQYGSGRAFSAFGLPVMNGFDGPKIQWMTELGNNFHSLLGWTLLVLIVGHVAALILHCIKGQGHILRRMAGSARSA”, the protein production entry was “failed”.
